In patent US20190077860A1 (EISAI R AND D MANAGEMENT, published 2019):

T1: human EphB4 extracellular region-SEAP-His protein (human, UniProt P54760 16-539)
T1 construct: extracellular domain; also called hEphB4-SEAP-His
T1 sequence (looked up): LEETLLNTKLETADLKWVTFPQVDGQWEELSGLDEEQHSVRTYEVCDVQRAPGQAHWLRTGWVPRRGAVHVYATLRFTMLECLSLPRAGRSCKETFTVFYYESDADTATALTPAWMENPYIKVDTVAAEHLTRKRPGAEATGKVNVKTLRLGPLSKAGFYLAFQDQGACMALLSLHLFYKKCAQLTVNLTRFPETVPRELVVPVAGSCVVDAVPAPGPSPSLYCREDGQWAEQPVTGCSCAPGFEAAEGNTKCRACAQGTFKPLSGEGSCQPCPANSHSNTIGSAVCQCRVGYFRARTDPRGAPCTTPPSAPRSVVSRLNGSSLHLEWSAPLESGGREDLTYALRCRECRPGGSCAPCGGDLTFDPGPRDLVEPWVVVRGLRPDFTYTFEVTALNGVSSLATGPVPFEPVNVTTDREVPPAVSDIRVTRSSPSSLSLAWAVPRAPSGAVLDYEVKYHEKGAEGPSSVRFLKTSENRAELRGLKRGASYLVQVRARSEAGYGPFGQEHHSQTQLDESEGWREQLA

T2: human EphB6 extracellular region-SEAP-His protein (human, UniProt O15197 32-594)
T2 construct: extracellular domain; also called hEphB6-SEAP-His
T2 sequence (looked up): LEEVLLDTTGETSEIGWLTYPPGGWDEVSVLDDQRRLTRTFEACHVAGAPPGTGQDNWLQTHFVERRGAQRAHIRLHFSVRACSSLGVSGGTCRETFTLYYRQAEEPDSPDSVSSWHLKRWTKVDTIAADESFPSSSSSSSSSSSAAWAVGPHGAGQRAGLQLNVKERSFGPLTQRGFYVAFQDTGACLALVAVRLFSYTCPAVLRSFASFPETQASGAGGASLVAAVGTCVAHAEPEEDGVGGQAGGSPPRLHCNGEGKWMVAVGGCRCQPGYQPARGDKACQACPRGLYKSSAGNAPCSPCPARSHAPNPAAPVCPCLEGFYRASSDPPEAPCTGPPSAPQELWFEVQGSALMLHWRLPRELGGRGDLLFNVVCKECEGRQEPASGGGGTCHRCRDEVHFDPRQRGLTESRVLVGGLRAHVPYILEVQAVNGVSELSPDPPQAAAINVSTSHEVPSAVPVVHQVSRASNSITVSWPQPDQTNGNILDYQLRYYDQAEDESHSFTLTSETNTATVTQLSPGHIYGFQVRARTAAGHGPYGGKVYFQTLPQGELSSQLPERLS

T3: human EphA7 extracellular region-SEAP-His protein (human, UniProt Q15375 28-555)
T3 construct: extracellular domain; also called hEphA7-SEAP-His
T3 sequence (looked up): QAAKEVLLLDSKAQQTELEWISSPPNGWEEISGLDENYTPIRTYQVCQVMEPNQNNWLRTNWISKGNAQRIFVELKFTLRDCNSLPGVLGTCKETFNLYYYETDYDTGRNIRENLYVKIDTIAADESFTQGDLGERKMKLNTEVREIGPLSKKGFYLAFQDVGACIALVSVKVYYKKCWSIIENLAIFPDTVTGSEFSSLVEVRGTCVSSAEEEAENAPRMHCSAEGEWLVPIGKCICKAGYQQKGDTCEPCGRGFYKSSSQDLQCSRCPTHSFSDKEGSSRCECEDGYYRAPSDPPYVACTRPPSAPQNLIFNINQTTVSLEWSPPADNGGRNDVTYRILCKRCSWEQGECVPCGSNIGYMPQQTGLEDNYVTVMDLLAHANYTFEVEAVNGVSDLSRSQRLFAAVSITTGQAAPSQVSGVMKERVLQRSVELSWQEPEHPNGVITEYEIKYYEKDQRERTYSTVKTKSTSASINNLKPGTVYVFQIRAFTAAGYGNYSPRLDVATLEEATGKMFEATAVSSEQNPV

T4: human EphB1 extracellular region-SEAP-His protein (human, UniProt P54762 18-540)
T4 construct: extracellular domain; also called hEphB1-SEAP-His
T4 sequence (looked up): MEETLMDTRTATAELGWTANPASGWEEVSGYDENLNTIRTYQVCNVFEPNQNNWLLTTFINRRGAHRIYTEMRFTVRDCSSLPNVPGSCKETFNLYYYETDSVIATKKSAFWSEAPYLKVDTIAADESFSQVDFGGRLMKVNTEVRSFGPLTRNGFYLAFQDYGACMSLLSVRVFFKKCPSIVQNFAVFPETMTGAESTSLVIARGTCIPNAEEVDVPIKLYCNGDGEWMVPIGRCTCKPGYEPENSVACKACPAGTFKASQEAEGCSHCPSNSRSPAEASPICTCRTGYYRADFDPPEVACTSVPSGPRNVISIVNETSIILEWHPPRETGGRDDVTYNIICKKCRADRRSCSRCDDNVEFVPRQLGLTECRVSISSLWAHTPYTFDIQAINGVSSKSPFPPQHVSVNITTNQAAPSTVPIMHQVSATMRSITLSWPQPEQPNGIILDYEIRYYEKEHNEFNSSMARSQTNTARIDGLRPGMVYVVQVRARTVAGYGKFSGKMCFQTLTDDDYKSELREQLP


Key:
Test in all cases: ELISA
[1] = biological target: T1, human EphB4 extracellular …
Experimental: (§1) Each well of a 96-well plate (Nunc) was coated with a rabbit anti-6-His antibody (Bethyl Laboratories). Each well was […] After washing with 0.05% Tween 20/PBS (Nacalai Tesque) three times, the SEAP-His protein of human EphA1, EphA2, EphA3, EphA4, EphA5, EphA6, EphA7, EphA8, EphA10, EphB1, EphB2, EphB3, EphB4, or EphB6 was added (final concentration: 1 nM) to each well and incubated at room temperature for 1 hour. After washing three times, the humanized antibody was added to each well and incubated at room temperature for 1 hour. After washing three times, a horseradish peroxidase-labeled donkey […] antibody (Jackson ImmunoResearch Laboratories) was added thereto and incubated at room temperature for 1 hour. After washing three times, TMB Microwell Peroxidase Substrate System (Kirkegaard & Perry Laboratories (KPL)) was added to each well. After confirmation of moderate color development, an equal amount of a reaction stopping solution (1N H₂SO₄, Wako Pure Chemical Industries) was added to each well. The absorbance at 450 nm was read using a microplate reader (Thermo Fisher Scientific).

[2] = biological target: T2, human EphB6 extracellular …
Experimental: as §1

[3] = biological target: T3, human EphA7 extracellular …
Experimental: as §1

[4] = biological target: T4, human EphB1 extracellular …
Experimental: as §1

A450 as % of hEphA4-SEAP-His [1] [%]	A450 as % of hEphA4-SEAP-His [2] [%]	A450 as % of hEphA4-SEAP-His [3] [%]	A450 as % of hEphA4-SEAP-His [4] [%]	Binder
5.4	5.2	5.2	5.3	humanized antibody No. 140 (antibody, human IgG2, human Ig kappa; also called L1-4/HA2) heavy: QVQLVQSGSELKKPGASVKVSCKASGYTFTDYSMHWVRQAPGQGLKWMGWINTETGEPTYAQGFTGRFVFSLDTSVSTAYLQISSLKAEDTAVYYCARIPLYYYGSRYWYFDVWGQGTTVTVSSASTKGPSVFPLAPSSRSTSESTAALGCLVKDYFPEPVTVSWNSGALTSGVHTFPAVLQSSGLYSLSSVVTVPSSNFGTQTYTCNVDHKPSNTKVDKTVERKSCVECPPCPAPPAAAPSVFLFPPKPKDTLMISRTPEVTCVVVDVSHEDPEVQFNWYVDGVEVHNAKTKPREEQFNSTFRVVSVLTVVHQDWLNGKEYKCKVSNKGLPAPIEKTISKTKGQPREPQVYTLPPSREEMTKNQVSLTCLVKGFYPSDIAVEWESNGQPENNYKTTPPMLDSDGSFFLYSKLTVDKSRWQQGNVFSCSVMHEALHNHYTQKSLSLSPG light: DIQMTQSPSSLSASVGDRVTITCRASENIYRNLAWYQQKPGKAPKLLVYAATNLADGVPSRFSGSGSGTDYTLTISSLQPEDFATYYCQHFWGTPWTFGQGTKVEIKRTVAAPSVFIFPPSDEQLKSGTASVVCLLNNFYPREAKVQWKVDNALQSGNSQESVTEQDSKDSTYSLSSTLTLSKADYEKHKVYACEVTHQGLSSPVTKSFNRGEC
5.7	5.9	5.5	5.5	humanized antibody No. 139 (antibody, human IgG2, human Ig kappa; also called L1-4/HA1) heavy: QVQLVQSGSELKKPGASVKVSCKASGYTFTDYSMHWVRQAPGQGLEWMGWINTETGEPTYAQGFTGRFVFSLDTSVSTAYLQISSLKAEDTAVYYCARIPLYYYGSRYWYFDVWGQGTTVTVSSASTKGPSVFPLAPSSRSTSESTAALGCLVKDYFPEPVTVSWNSGALTSGVHTFPAVLQSSGLYSLSSVVTVPSSNFGTQTYTCNVDHKPSNTKVDKTVERKSCVECPPCPAPPAAAPSVFLFPPKPKDTLMISRTPEVTCVVVDVSHEDPEVQFNWYVDGVEVHNAKTKPREEQFNSTFRVVSVLTVVHQDWLNGKEYKCKVSNKGLPAPIEKTISKTKGQPREPQVYTLPPSREEMTKNQVSLTCLVKGFYPSDIAVEWESNGQPENNYKTTPPMLDSDGSFFLYSKLTVDKSRWQQGNVFSCSVMHEALHNHYTQKSLSLSPG light: DIQMTQSPSSLSASVGDRVTITCRASENIYRNLAWYQQKPGKAPKLLVYAATNLADGVPSRFSGSGSGTDYTLTISSLQPEDFATYYCQHFWGTPWTFGQGTKVEIKRTVAAPSVFIFPPSDEQLKSGTASVVCLLNNFYPREAKVQWKVDNALQSGNSQESVTEQDSKDSTYSLSSTLTLSKADYEKHKVYACEVTHQGLSSPVTKSFNRGEC
5.2	5	4.9	5.1	humanized antibody No. 138 (antibody, human IgG2, human Ig kappa; also called L1-4/HA4) heavy: QIQLVQSGSELKKPGASVKVSCKASGYTFTDYSMHWVRQAPGQGLKWMGWINTETGEPTYAQGFTGRFVFSLDTSVSTAYLQISSLKAEDTAVYYCARIPLYYYGSRYWYFDVWGQGTTVTVSSASTKGPSVFPLAPSSRSTSESTAALGCLVKDYFPEPVTVSWNSGALTSGVHTFPAVLQSSGLYSLSSVVTVPSSNFGTQTYTCNVDHKPSNTKVDKTVERKSCVECPPCPAPPAAAPSVFLFPPKPKDTLMISRTPEVTCVVVDVSHEDPEVQFNWYVDGVEVHNAKTKPREEQFNSTFRVVSVLTVVHQDWLNGKEYKCKVSNKGLPAPIEKTISKTKGQPREPQVYTLPPSREEMTKNQVSLTCLVKGFYPSDIAVEWESNGQPENNYKTTPPMLDSDGSFFLYSKLTVDKSRWQQGNVFSCSVMHEALHNHYTQKSLSLSPG light: DIQMTQSPSSLSASVGDRVTITCRASENIYRNLAWYQQKPGKAPKLLVYAATNLADGVPSRFSGSGSGTDYTLTISSLQPEDFATYYCQHFWGTPWTFGQGTKVEIKRTVAAPSVFIFPPSDEQLKSGTASVVCLLNNFYPREAKVQWKVDNALQSGNSQESVTEQDSKDSTYSLSSTLTLSKADYEKHKVYACEVTHQGLSSPVTKSFNRGEC
